Measured values: article PMC6346578

Experiments:
[1] = target: T1, SACE_5754 (TetR family regulator) (Saccharopolyspora erythraea A226?) (UniProt A4FLL4); experiment: EMSA; conditions: EMSA: 10 mM Tris pH 7.5, 5 mM MgCl2, 60 mM KCl, 10 mM DTT, 50 mM EDTA (so in the source), 10% glycerol, 30 C 10 min, 20 uL; 6% native PAGE, 1x TAE. Footprinting: …
T1 sequence: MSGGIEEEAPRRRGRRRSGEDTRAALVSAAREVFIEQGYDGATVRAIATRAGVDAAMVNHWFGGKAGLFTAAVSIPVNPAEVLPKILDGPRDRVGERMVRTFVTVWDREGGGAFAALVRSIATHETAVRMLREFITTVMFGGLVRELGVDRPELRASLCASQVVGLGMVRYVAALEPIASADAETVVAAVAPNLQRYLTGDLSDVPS

[2] = target: T1, SACE_5754 (TetR family regulator) (Saccharopolyspora erythraea A226?); experiment: DNase I footprinting; conditions: EMSA: 10 mM Tris pH 7.5, 5 mM MgCl2, 60 mM KCl, 10 mM DTT, 50 mM EDTA (so in the source), 10% glycerol, 30 C 10 min, 20 uL; 6% native PAGE, 1x TAE. Footprinting: …

## GGCGGGCAGGAAATCAACACTTGTTGAATTACGGTCGCGCACGCGCTCCGCGATCGCGCGGACACTTACCGCTTCGGGCGGAAATGCATTGCAAGCAAAGAAGATTGGGCCGTTCGGCGGCATCCGGGCCGAGTGGTCAAGCGCACAGAGAACTGAGTTGCCCGCGCCCGTCCGTGCGATGCATGCTTGCGTCCAGCAACTAGTTGGTTGCTGCAATCAAATCGGTTGCGCTCGCCGGGGG (double strand) [Probe 1]
[1]
  binding: binds

## TCGGCGCCTCCTCCTCGATGCCACCGCTCACACCGCCATCCTCGCTGTCGGCCGCTTCGGGGTGCAAAGCCGGGCTGCGCGCGGCACCCGCCCTGGCGGACGGCACAATTGGGGCATGGTGGGCGGCGACATCGGCAAGATCAGTC (double strand) [P5753-5754]
[1]
  binding: no binding

## CTGTGCAGTACCTGGAGGGCGGACCCTCCGGACGCGGGTTGTTCGTCGGTGTGCGCGGATGACCCGTGCGTTCGCGTTTTCCGTTCCTGGCACAGGTGATCCGCTCCACGGGCCCTTTCCCCGCCGTGACCGGACCCTTACAGTGAGTGCGGGTCTTGATCGACAACGCCCGGCGGCAGCAAGCGGAGCCGTCGACGACACCGCAGGGAGAGTCGATGGGTGATCGGACCGGCGACCGGACGATTCCGGAATCCTCGCAGACCGCAACGCGTTTCCTGCTCGGC (double strand) [PeryBVI]
[1]
  binding: no binding

## TCACCACCTGAAACCGCCACCGTTTTCCCGGAATCCGGCCACCGGAACCGGACCGGCCGAAATGGACATTCCGCCACGGTGCCGCGGGCGCCACCCGCACGCACGTTGAATTCAACACATGTTCAACAGCGTCGGAGGCGGGGATAATCGAACCCTGAGCGCCCGCCGAGCGTTCGCCACGGCCGCCATCGTCCGCGTGAGGAACCCATGACCAAGCA (double strand) [P3599]
[2]
  binding: binds
[1]
  binding: binds

## GGTGGCTTCTGGCGTGCTCATAACGCGTTCAGCGTATCCAGTCGGCTTCCGCCCTTGACCGGCGAGTCCCGGCAGGGCACCCTGAAGTTATTCAACATGCGTTGAAAACTTGGAGGATCGCGATGGAGCGAACGACGTGTTGC (double strand) [P6148-6149]
[2]
  binding: binds
[1]
  binding: binds

## CGGACCGGAGTTCGAGGTACGCGGCTTGCAGGTCCAGGAAGGGGACGTCCATGCGAGTGTCCGTTCGAGTGGCGGCTTGCGCCCGATGCTAGTCGCGGTTGATCGGCGATCGCAGGTGCACGCGGTCGATCTTGACGGCTGGCGAGAGGTGCGGGGAGGATCTGACCGACGCGGTCCACACGTGGCACCGCGATGCTGTTGTGGGCTGGACAATCGTGCCGGTTGGTAGGATCCAGCGGTGAGCAGTTCGGACGAGCAGCCGCGCCCGCGTCGCCGCAACCAGGATCGGCAGCAC (double strand) [PeryCI-ermE]
[1]
  binding: no binding

## TGCCCGAAAGGTAACCCCGCGGCGGGCAGGAAATCAACACTTGTTGAATTACGGTCGCGCACGCGCTCCGCGATCGCGCGGACACTTACCGCTTCGGGCGGAAATGCATTGCAAGCAAAGAAGATTGGGCCGTTCGGCGGCATCCGGGCCGAGTGGTCAAGCGCACAGAGAACTGAGTTGCCCGCGCCCGTCCGTGCGATGCATGCTTGCGTCCAGCAACTAGTTGGTTGCTGCAATCAAATCGGTTGCGCTCGCCGGGGG (double strand) [P0388-0389]
[2]
  binding: binds
[1]
  binding: binds

## CATCGTGCCCAGCCAGTCGAGGAGTGCGGTTTCGTCGGCCATGCCGGGAACTTCGTCGATGGTGGTCAACGTTCTCCTCGCGCAGCAGGTCGTTTCCACGTCGGCGAACACGCGTCGCGATCTTGAGCTTAGTCGCGCGCCGGACGGGGTGTCGAGACTTCCGCGGTGGCGGTGGGAACAGTGAGCACGGCGTCGAACGCGTCGCGCAGCGGCGTCCGCATCCACGTGCTCTGGGAGCGGATCCGGTCC (double strand) [PeryK]
[1]
  binding: no binding
